B1: Nuclear RNAi defective-3 protein (Caenorhabditis elegans), Q21691 (parent)
chain: MDLLDKVMGEMGSKPGSTAKKPATSASSTPRTNVWGTAKKPSSQQQPPKPLFTTPGSQQGSLGGRIPKREHTDRTGPDPKRKPLGGLSVPDSFNNFGTFRVQMNAWNLDISKMDERISRIMFRATLVHTDGRRFELSLGVSAFSGDVNRQQRRQAQCLLFRAWFKRNPELFKGMTDPAIAAYDAAETIYVGCSFFDVELTEHVCHLTEADFSPQEWKIVSLISRRSGSTFEIRIKTNPPIYTRGPNALTLENRSELTRIIEAITDQCLHNEKFLLYSSGTFPTKGGDIASPDEVTLIKSGFVKTTKIVDRDGVPDAIMTVDTTKSPFYKDTSLLKFFTAKMDQLTNSGGGPRGHNGGRERRDGGGNSRKYDDRRSPRDGEIDYDERTVSHYQRQFQDERISDGMLNTLKQSLKGLDCQPIHLKDSKANRSIMIDEIHTGTADSVTFEQKLPDGEMKLTSITEYYLQRYNYRLKFPHLPLVTSKRAKCYDFYPMELMSILPGQRIKQSHMTVDIQSYMTGKMSSLPDQHIKQSKLVLTEYLKLGDQPANRQMDAFRVSLKSIQPIVTNAHWLSPPDMKFANNQLYSLNPTRGVRFQTNGKFVMPARVKSVTIINYDKEFNRNVDMFAEGLAKHCSEQGMKFDSRPNSWKKVNLGSSDRRGTKVEIEEAIRNGVTIVFGIIAEKRPDMHDILKYFEEKLGQQTIQISSETADKFMRDHGGKQTIDNVIRKLNPKCGGTNFLIDVPESVGHRVVCNNSAEMRAKLYAKTQFIGFEMSHTGARTRFDIQKVMFDGDPTVVGVAYSLKHSAQLGGFSYFQESRLHKLTNLQEKMQICLNAYEQSSSYLPETVVVYRVGSGEGDYPQIVNEVNEMKLAARKKKHGYNPKFLVICTQRNSHIRVFPEHINERGKSMEQNVKSGTCVDVPGASHGYEEFILCCQTPLIGTVKPTKYTIIVNDCRWSKNEIMNVTYHLAFAHQVSYAPPAIPNVSYAAQNLAKRGHNNYKTHTKLVDMNDYSYRIKEKHEEIISSEEVDDILMRDFIETVSNDLNAMTINGRNFWA
partner: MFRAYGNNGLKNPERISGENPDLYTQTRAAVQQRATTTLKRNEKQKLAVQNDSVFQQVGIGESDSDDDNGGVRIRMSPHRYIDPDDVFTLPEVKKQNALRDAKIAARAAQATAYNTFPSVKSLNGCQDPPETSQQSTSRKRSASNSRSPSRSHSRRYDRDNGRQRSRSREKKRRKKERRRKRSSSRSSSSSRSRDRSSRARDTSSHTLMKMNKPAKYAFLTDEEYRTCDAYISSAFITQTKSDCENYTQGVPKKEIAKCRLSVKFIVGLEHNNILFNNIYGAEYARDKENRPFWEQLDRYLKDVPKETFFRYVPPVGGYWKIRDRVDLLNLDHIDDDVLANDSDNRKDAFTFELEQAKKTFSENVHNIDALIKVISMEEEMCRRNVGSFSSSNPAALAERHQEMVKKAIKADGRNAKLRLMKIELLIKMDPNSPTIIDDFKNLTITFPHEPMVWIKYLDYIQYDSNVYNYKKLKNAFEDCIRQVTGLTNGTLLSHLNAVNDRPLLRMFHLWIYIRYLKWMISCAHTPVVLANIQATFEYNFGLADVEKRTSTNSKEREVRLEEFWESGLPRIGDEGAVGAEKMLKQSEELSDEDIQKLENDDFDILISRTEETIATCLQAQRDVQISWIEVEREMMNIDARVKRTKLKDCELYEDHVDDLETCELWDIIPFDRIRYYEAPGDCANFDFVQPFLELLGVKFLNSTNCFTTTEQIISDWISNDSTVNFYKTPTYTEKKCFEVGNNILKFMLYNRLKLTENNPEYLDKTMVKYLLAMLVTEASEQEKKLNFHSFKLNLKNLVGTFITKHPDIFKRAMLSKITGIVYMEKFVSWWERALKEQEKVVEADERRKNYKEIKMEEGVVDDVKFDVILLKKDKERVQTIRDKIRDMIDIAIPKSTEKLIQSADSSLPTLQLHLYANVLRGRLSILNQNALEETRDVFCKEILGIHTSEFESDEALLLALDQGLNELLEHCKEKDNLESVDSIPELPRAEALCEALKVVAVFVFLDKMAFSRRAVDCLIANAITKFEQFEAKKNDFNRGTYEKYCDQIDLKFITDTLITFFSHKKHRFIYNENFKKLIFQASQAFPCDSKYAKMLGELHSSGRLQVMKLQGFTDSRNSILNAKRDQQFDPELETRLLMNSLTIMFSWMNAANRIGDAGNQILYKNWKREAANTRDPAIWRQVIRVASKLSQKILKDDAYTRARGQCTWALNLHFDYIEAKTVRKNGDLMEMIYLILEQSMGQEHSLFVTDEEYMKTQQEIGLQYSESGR

Variants of B1 are the subject of the assay. As to conditions: with nrde2_caeel nrde-2, G5EG51.
As to K80A;R81A;K82A, the “effect of a mutation on the interaction” value is listed as “disrupting interaction”.

The values above are taken from IntAct's records for PubMed 20543824.
